Among the data in patent publication US6479250 (Amgen, dated 2002) are ED50 of survival of embryonic rat spinal cord neurons after 9 days in culture, enhancement of survival of embryonic rat spinal cord neurons after 9 days in culture and Kd values, retold here.

The target of assay [1] is rat Eck receptor (rat) (UniProt D3ZBN3). Description: cell-based or functional assay.
Assay [2] concerns the target T1, eck receptor extracellular domain (eck-x), soluble, expressed in CHO cells (human, UniProt P29317 24-537).
T1 construct: extracellular domain; The construct ends at Asn534 (numbering of the eck cDNA of Lindberg et al.); Immobilized on BIAcore chips or on CNBr-Sepharose; also called soluble eck receptor; recombinant human Eck extracellular domain
The experiment in a line: BIAcore, EBP on immobilized eck-x.

Assay [3] deals with T2, eck receptor (p130^eck), full length, on LIM 2405 cells or on CHO 19.32 cells transfected with the full … (human, UniProt P29317 24-976).
T2 construct: whole, on cells; also called EBP receptors
The experiment in a line: Scatchard analysis of steady-state binding of 125I-rEBP to LIM2405 cells, 0° C. As for the experimental part: Nonspecific binding was determined from parallel reactions containing a 50 fold excess of unlabeled EBP.

Chain of rat Eck receptor (rat) (D3ZBN3 entry or part of it limits assumed, form in doubt): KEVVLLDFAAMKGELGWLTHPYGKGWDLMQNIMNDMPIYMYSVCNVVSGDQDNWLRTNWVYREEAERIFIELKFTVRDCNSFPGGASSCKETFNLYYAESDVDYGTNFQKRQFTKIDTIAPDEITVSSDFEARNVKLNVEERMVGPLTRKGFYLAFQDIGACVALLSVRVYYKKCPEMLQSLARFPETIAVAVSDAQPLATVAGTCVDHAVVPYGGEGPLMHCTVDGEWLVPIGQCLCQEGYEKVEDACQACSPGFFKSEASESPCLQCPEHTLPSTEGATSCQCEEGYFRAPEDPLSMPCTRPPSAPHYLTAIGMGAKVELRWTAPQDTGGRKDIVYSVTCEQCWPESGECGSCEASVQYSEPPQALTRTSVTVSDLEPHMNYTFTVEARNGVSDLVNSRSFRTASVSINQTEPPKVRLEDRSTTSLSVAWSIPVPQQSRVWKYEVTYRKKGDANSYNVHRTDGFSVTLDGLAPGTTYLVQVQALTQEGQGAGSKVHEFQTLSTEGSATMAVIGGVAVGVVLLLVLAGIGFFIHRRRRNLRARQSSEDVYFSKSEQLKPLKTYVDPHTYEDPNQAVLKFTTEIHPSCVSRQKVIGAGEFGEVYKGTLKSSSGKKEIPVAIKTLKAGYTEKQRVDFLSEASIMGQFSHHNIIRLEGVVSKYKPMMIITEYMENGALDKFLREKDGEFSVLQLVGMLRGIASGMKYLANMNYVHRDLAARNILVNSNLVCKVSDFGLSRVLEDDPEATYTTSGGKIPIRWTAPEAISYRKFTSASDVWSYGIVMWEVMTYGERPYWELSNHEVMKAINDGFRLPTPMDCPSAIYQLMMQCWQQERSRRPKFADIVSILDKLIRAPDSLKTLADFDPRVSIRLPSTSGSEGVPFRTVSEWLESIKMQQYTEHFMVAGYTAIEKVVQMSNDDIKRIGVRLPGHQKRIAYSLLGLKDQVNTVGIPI
T2 sequence (P29317 24-976): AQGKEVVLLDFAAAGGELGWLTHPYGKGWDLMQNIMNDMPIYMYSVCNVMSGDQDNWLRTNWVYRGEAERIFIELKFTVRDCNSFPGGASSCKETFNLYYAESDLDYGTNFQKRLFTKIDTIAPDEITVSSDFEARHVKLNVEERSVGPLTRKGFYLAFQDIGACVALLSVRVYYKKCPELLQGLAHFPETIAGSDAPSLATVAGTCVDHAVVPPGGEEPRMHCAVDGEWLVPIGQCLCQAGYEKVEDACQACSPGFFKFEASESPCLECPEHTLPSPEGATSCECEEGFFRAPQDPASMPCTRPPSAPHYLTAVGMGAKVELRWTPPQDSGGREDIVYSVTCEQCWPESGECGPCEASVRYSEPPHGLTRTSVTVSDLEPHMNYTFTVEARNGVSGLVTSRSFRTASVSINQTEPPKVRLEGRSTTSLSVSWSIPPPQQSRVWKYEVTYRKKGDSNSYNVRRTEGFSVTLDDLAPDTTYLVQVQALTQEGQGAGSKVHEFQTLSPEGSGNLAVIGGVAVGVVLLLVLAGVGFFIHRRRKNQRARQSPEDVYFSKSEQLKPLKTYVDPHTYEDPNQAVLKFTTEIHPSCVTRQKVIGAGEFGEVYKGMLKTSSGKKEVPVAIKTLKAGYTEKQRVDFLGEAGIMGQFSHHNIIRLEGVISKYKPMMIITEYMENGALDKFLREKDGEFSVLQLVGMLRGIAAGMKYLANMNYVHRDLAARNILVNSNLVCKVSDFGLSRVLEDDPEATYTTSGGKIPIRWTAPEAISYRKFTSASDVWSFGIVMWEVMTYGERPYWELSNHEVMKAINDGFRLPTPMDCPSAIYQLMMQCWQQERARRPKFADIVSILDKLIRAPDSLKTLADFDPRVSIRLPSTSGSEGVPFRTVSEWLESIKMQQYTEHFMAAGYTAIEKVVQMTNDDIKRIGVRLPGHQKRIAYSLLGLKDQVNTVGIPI
T1 sequence (P29317 24-537): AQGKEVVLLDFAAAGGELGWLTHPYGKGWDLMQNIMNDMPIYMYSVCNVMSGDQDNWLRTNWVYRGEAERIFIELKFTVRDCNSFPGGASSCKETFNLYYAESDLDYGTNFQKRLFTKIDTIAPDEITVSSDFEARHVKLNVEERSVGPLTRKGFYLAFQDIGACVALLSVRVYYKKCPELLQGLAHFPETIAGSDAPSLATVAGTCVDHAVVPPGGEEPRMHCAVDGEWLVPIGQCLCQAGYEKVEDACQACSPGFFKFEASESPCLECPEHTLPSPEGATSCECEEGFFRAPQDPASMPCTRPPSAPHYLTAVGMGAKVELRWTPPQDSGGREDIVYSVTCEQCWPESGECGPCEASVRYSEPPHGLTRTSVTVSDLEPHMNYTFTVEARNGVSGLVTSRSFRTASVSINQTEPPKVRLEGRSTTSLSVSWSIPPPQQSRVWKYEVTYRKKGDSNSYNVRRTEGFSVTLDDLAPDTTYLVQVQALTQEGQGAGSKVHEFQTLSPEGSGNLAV

B1: recombinant EBP from CHO cells transfected with the EBP gene (ligand)
chain: DRHTVFWNSSNPKFRNEDYTIHVQLNDYVDIICPHYEDHSVADAAMEQYILYLVEHEEYQLCQPQSKDQVRWQCNRPSAKHGPEKLSEKFQRFTPFTLGKEFKEGHSYYYISKPIHQHEDRCLRLKVTVSGKITHSPQAHVNPQEKRLAA
notes: the entry may begin with a leader at negative positions; also called CHO rEBP; rEBP
For B1, in assay [1], the ED50 of survival of embryonic rat spinal cord neurons after 9 days in culture was under 10 µg/mL and the enhancement of survival of embryonic rat spinal cord neurons after 9 days in culture is under 84%. Moreover, in assay [2], the Kd is about 24 nM. Moreover, the Kd in assay [3] worked out at 28 nM.
